Reference: patent US20160264649A1

Legend:
Experiment in all cases: cell-based or functional assay
[1] = biological target: HIV-1 Env of isolate MGRM-D-026 (subtype D) (HIV-1)
[2] = biological target: HIV-1 Env of isolate MGRM-F1-014 (subtype F) (HIV-1)
[3] = biological target: HIV-1 Env of isolate MGRM-F1-018 (subtype F) (HIV-1)
[4] = biological target: HIV-1 Env of pseudovirus isolate MGRM-G-011 (subtype G) (HIV-1)
[5] = biological target: HIV-1 Env of isolate MGRM-F1-020 (subtype F) (HIV-1)
[6] = biological target: HIV-1 Env of isolate MGRM-D-020 (subtype D) (HIV-1)
[7] = biological target: HIV-1 Env of isolate 98CN009 (subtype CRF07_BC) (HIV-1)
[8] = biological target: HIV-1 Env of isolate MGRM-D-016 (subtype D) (HIV-1)
[9] = biological target: HIV-1 Env of isolate MGRM-F1-017 (subtype F) (HIV-1)
[10] = biological target: HIV-1 Env of pseudovirus isolate MGRM-G-014 (subtype G) (HIV-1)
[11] = biological target: HIV-1 Env of isolate MGRM-D-001 (subtype D) (HIV-1)
[12] = biological target: HIV-1 Env of isolate MGRM-D-012 (subtype D) (HIV-1)
[13] = biological target: HIV-1 Env of pseudovirus isolate MGRM-G-024 (subtype G) (HIV-1)
[14] = biological target: HIV-1 Env of isolate MGRM-D-003 (subtype D) (HIV-1)
[15] = biological target: HIV-1 Env of isolate MGRM-F1-004 (subtype F) (HIV-1)
[16] = biological target: HIV-1 Env of isolate MGRM-F1-010 (subtype F) (HIV-1)
[17] = biological target: HIV-1 Env of pseudovirus isolate MGRM-G-006 (subtype G) (HIV-1)
[18] = biological target: HIV-1 Env of pseudovirus isolate MGRM-G-016 (subtype G) (HIV-1)
[19] = biological target: HIV-1 Env of isolate MGRM-D-029 (subtype D) (HIV-1)
[20] = biological target: HIV-1 Env of isolate MGRM-D-028 (subtype D) (HIV-1)
[21] = biological target: HIV-1 Env of isolate MGRM-F1-006 (subtype F) (HIV-1)
[22] = biological target: HIV-1 Env of isolate MGRM-F1-008 (subtype F) (HIV-1)
[23] = biological target: HIV-1 Env of isolate MGRM-D-002 (subtype D) (HIV-1)
[24] = biological target: HIV-1 Env of isolate MGRM-F1-012 (subtype F) (HIV-1)
[25] = biological target: HIV-1 Env of pseudovirus isolate MGRM-G-028 (subtype G) (HIV-1)
[26] = biological target: HIV-1 Env of pseudovirus isolate MGRM-G-025 (subtype G) (HIV-1)
[27] = biological target: HIV-1 Env of isolate MGRM-D-022 (subtype D) (HIV-1)
[28] = biological target: HIV-1 Env of pseudovirus isolate MGRM-G-017 (subtype G) (HIV-1)
[29] = biological target: HIV-1 Env of isolate MGRM-D-005 (subtype D) (HIV-1)
[30] = biological target: HIV-1 Env of isolate MGRM-D-024 (subtype D) (HIV-1)
[31] = biological target: HIV-1 Env of isolate MGRM-F1-022 (subtype F) (HIV-1)
[32] = biological target: HIV-1 Env of isolate 92UG005 (subtype D) (HIV-1)
[33] = biological target: HIV-1 Env of isolate MGRM-F1-015 (subtype F) (HIV-1)
[34] = biological target: HIV-1 Env of isolate MGRM-D-011 (subtype D) (HIV-1)
[35] = biological target: HIV-1 Env of pseudovirus isolate MGRM-G-004 (subtype G) (HIV-1)
[36] = biological target: HIV-1 Env of isolate MGRM-F1-013 (subtype F) (HIV-1)
[37] = biological target: HIV-1 Env of isolate 92UG046 (subtype D) (HIV-1)
[38] = biological target: HIV-1 Env of isolate MGRM-D-008 (subtype D) (HIV-1)
[39] = biological target: HIV-1 Env of isolate MGRM-D-019 (subtype D) (HIV-1)
[40] = biological target: HIV-1 Env of isolate 92UG114 (subtype D) (HIV-1)
[41] = biological target: HIV-1 Env of isolate MGRM-D-014 (subtype D) (HIV-1)
[42] = biological target: HIV-1 Env of isolate MGRM-F1-016 (subtype F) (HIV-1)
[43] = biological target: HIV-1 Env of isolate 92UG001 (subtype D) (HIV-1)
[44] = biological target: HIV-1 Env of isolate MGRM-D-021 (subtype D) (HIV-1)
[45] = biological target: HIV-1 Env of isolate MGRM-D-018 (subtype D) (HIV-1)
[46] = biological target: HIV-1 Env of isolate MGRM-D-013 (subtype D) (HIV-1)
[47] = biological target: HIV-1 Env of isolate MGRM-F1-021 (subtype F) (HIV-1)
[48] = biological target: HIV-1 Env of pseudovirus isolate MGRM-G-015 (subtype G) (HIV-1)
[49] = biological target: HIV-1 Env of isolate 92UG024 (subtype D) (HIV-1)
[50] = biological target: HIV-1 Env of pseudovirus isolate MGRM-G-009 (subtype G) (HIV-1)
[51] = biological target: envelope of aMLV pseudovirus (negative control)
[52] = biological target: HIV-1 Env of pseudovirus isolate MGRM-G-001 (subtype G) (HIV-1)
[53] = biological target: HIV-1 Env of pseudovirus isolate MGRM-G-019 (subtype G) (HIV-1)
[54] = biological target: HIV-1 Env of isolate 98CN006 (subtype CRF08_BC) (HIV-1)
[55] = biological target: HIV-1 Env of pseudovirus isolate MGRM-G-027 (subtype G) (HIV-1)
[56] = biological target: HIV-1 Env of isolate MGRM-F1-023 (subtype F) (HIV-1)
[57] = biological target: HIV-1 Env of isolate MGRM-D-004 (subtype D) (HIV-1)
[58] = biological target: HIV-1 Env of pseudovirus isolate MGRM-G-013 (subtype G) (HIV-1)

B1: PGT-128 (antibody, V domains shown)
VH: QPQLQESGPTLVEASETLSLTCAVSGDSTAACNSFWGWVRQPPGKGLEWVGSLSHCASYWNRGWTYHNPSLKSRLTLALDTPKNLVFLKLNSVTAADTATYYCARFGGEVLRYTDWPKPAWVDLWGRGTLVTVSS
VL: QSALTQPPSASGSPGQSITISCTGTSNNFVSWYQQHAGKAPKLVIYDVNKRPSGVPDRFSGSKSGNTASLTVSGLQTDDEAVYYCGSLVGNWDVIFGGGTKLTVL
- IC50 (neutralization) [1]: > 50 µg/mL
- IC50 (neutralization) [2]: 0.277 µg/mL
- IC50 (neutralization) [3]: 0.023 µg/mL
- IC50 [4]: 8.21 µg/mL
- IC50 (neutralization) [5]: 0.355 µg/mL
- IC50 (neutralization) [6]: 0.011 µg/mL
- IC50 (neutralization) [7]: 0.025 µg/mL
- IC50 (neutralization) [8]: > 50 µg/mL
- IC50 (neutralization) [9]: 11.7 µg/mL
- IC50 [10]: 0.004 µg/mL
- IC50 (neutralization) [11]: 0.138 µg/mL
- IC50 (neutralization) [12]: > 50 µg/mL
- IC50 [13]: 0.095 µg/mL
- IC50 (neutralization) [14]: 0.019 µg/mL
- IC50 (neutralization) [15]: 0.027 µg/mL
- IC50 (neutralization) [16]: 16.7 µg/mL
- IC50 [17]: > 50 µg/mL
- IC50 [18]: > 50 µg/mL
- IC50 (neutralization) [19]: > 50 µg/mL
- IC50 (neutralization) [20]: > 50 µg/mL
- IC50 (neutralization) [21]: 0.763 µg/mL
- IC50 (neutralization) [22]: > 50 µg/mL
- IC50 (neutralization) [23]: 0.011 µg/mL
- IC50 (neutralization) [24]: 7 ng/mL
- IC50 [25]: 0.008 µg/mL
- IC50 [26]: 0.017 µg/mL
- IC50 (neutralization) [27]: > 50 µg/mL
- IC50 [28]: 0.319 µg/mL
- IC50 (neutralization) [29]: 0.051 µg/mL
- IC50 (neutralization) [30]: 0.067 µg/mL
- IC50 (neutralization) [31]: 4.54 µg/mL
- IC50 (neutralization) [32]: 0.018 µg/mL
- IC50 (neutralization) [33]: > 50 µg/mL
- IC50 (neutralization) [34]: 0.007 µg/mL
- IC50 [35]: > 50 µg/mL
- IC50 (neutralization) [36]: 12.7 µg/mL
- IC50 (neutralization) [37]: > 50 µg/mL
- IC50 (neutralization) [38]: 0.033 µg/mL
- IC50 (neutralization) [39]: > 50 µg/mL
- IC50 (neutralization) [40]: 0.083 µg/mL
- IC50 (neutralization) [41]: 0.013 µg/mL
- IC50 (neutralization) [42]: 1.21 µg/mL
- IC50 (neutralization) [43]: > 50 µg/mL
- IC50 (neutralization) [44]: 0.014 µg/mL
- IC50 (neutralization) [45]: 0.008 µg/mL
- IC50 (neutralization) [46]: 8.85 µg/mL
- IC50 (neutralization) [47]: > 50 µg/mL
- IC50 [48]: > 50 µg/mL
- IC50 (neutralization) [49]: > 50 µg/mL
- IC50 [50]: > 50 µg/mL
- IC50 [51]: > 50 µg/mL
- IC50 [52]: 0.019 µg/mL
- IC50 [53]: 0.01 µg/mL
- IC50 (neutralization) [54]: 0.015 µg/mL
- IC50 [55]: 0.313 µg/mL
- IC50 (neutralization) [56]: 0.007 µg/mL
- IC50 (neutralization) [57]: 24.9 µg/mL
- IC50 [58]: 0.995 µg/mL

B2: PGT-130 (antibody, V domains shown)
VH: QVQLQESGPGLVKPAETLSLTCSVSGESINTGHYYWGWVRQVPGKGLEWIGHIHYTTAVLHNPSLKSRLTIKIYTLRNQITLRLSNVTAADTAVYHCVRSGGDILYYYEWQKPHWFSPWGPGIHVTVSS
VL: QSALTQPPSASGSLGQSVTISCNGTSSDIGGWNFVSWYQQFPGRAPRLIIFEVNKRPSGVPGRFSGSKSGNSASLTVSGLQSDDEGQYFCSSLFGRWDVVFGGGTKLTVL
- IC50 (neutralization) [1]: > 50 µg/mL
- IC50 (neutralization) [2]: 11.8 µg/mL
- IC50 (neutralization) [3]: > 50 µg/mL
- IC50 [4]: > 50 µg/mL
- IC50 (neutralization) [5]: 9.73 µg/mL
- IC50 (neutralization) [6]: 24.7 µg/mL
- IC50 (neutralization) [7]: 0.136 µg/mL
- IC50 (neutralization) [8]: > 50 µg/mL
- IC50 (neutralization) [9]: > 50 µg/mL
- IC50 [10]: 2.23 µg/mL
- IC50 (neutralization) [11]: > 50 µg/mL
- IC50 (neutralization) [12]: > 50 µg/mL
- IC50 [13]: 5.84 µg/mL
- IC50 (neutralization) [14]: 0.651 µg/mL
- IC50 (neutralization) [15]: 0.023 µg/mL
- IC50 (neutralization) [16]: > 50 µg/mL
- IC50 [17]: > 50 µg/mL
- IC50 [18]: > 50 µg/mL
- IC50 (neutralization) [19]: > 50 µg/mL
- IC50 (neutralization) [20]: 0.825 µg/mL
- IC50 (neutralization) [21]: > 50 µg/mL
- IC50 (neutralization) [22]: 0.065 µg/mL
- IC50 (neutralization) [23]: 0.869 µg/mL
- IC50 (neutralization) [24]: > 50000 ng/mL
- IC50 [25]: 0.074 µg/mL
- IC50 [26]: 8.45 µg/mL
- IC50 (neutralization) [27]: > 50 µg/mL
- IC50 [28]: > 50 µg/mL
- IC50 (neutralization) [29]: > 50 µg/mL
- IC50 (neutralization) [30]: > 50 µg/mL
- IC50 (neutralization) [31]: > 50 µg/mL
- IC50 (neutralization) [32]: 0.959 µg/mL
- IC50 (neutralization) [33]: > 50 µg/mL
- IC50 (neutralization) [34]: 0.019 µg/mL
- IC50 [35]: > 50 µg/mL
- IC50 (neutralization) [36]: > 50 µg/mL
- IC50 (neutralization) [37]: > 50 µg/mL
- IC50 (neutralization) [38]: > 50 µg/mL
- IC50 (neutralization) [39]: > 50 µg/mL
- IC50 (neutralization) [40]: > 50 µg/mL
- IC50 (neutralization) [41]: 0.061 µg/mL
- IC50 (neutralization) [42]: > 50 µg/mL
- IC50 (neutralization) [43]: > 50 µg/mL
- IC50 (neutralization) [44]: 0.156 µg/mL
- IC50 (neutralization) [45]: 0.049 µg/mL
- IC50 (neutralization) [46]: 0.429 µg/mL
- IC50 (neutralization) [47]: > 50 µg/mL
- IC50 [48]: > 50 µg/mL
- IC50 (neutralization) [49]: > 50 µg/mL
- IC50 [50]: > 50 µg/mL
- IC50 [51]: > 50 µg/mL
- IC50 [52]: 0.0198 µg/mL
- IC50 [53]: 27.9 µg/mL
- IC50 (neutralization) [54]: 0.258 µg/mL
- IC50 [55]: 4.14 µg/mL
- IC50 (neutralization) [56]: 0.05 µg/mL
- IC50 (neutralization) [57]: 1.21 µg/mL
- IC50 [58]: > 50 µg/mL
